Substitutions are numbered along the chain they refer to. Numbers in names are those of the source.
T1: recombinant human activated Factor VII (FVIIa) (human, UniProt P08709 61-212; P08709 213-466, ten glutamate residues of the Gla domain may be gamma-carboxylated)
T1 construct: chains tethered by a disulfide bond; also called Factor VIIa; rFVIIa
T1 sequence 1: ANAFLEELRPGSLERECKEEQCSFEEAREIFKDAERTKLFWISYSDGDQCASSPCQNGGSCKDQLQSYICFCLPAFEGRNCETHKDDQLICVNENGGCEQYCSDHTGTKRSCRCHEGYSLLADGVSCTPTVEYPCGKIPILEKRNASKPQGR
T1 sequence 2: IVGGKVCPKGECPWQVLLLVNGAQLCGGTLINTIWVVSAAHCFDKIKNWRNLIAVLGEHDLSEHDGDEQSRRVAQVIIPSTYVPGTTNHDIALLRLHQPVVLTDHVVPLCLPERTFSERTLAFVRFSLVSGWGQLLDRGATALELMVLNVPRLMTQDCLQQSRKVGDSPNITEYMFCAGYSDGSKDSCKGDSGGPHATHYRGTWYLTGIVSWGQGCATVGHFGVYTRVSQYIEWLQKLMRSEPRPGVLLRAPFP

B1: VH SEQ ID NO 626 / VL SEQ ID NO 470 (antibody, IgG4, V domains shown)
VH: QVQLQESGPGLVKPSQTLSLTCTVSGYSISSDSAWSWIRQPPGKGLEWIGYIQYSGSTNYNPSLKSRVTISRDTSKNQFSLKLSSVTAADTAVYYCARSVNYYGNSFAVGPWGQGTLVTVSS
VL: EIVLTQSPATLSLSPGERATLSCRASQGVSDYLHWYQQKPGQAPRLLIKYASQPATGIPARFSGSGSGTDFTLTISSLEPEDFAVYYCQNGHSFPLTFGQGTKLEIK
notes: humanized 11F2; IgG4 S228P/kappa
B2: VH SEQ ID NO 514 / VL SEQ ID NO 422 (antibody, IgG4, V domains shown)
VH: B1 VH with K13E, Q16D, T23A, S30T, G45K, I70M, A89L, P111Y
VL: B1 VL with H34A, N90Q
notes: as for B1
B3: VH SEQ ID NO 514 / VL SEQ ID NO 406 (antibody, IgG4, V domains shown)
VH: B1 VH with K13E, Q16D, T23A, S30T, G45K, I70M, A89L, P111Y
VL: B1 VL with H34A, Q100A
notes: as for B1
B4: VH SEQ ID NO 514 / VL SEQ ID NO 310 (antibody, IgG4, V domains shown)
VH: B1 VH with K13E, Q16D, T23A, S30T, G45K, I70M, A89L, P111Y
VL: B1 VL with V29I, H34A
notes: as for B1
B5: VH SEQ ID NO 514 / VL SEQ ID NO 414 (antibody, IgG4, V domains shown)
VH: B1 VH with K13E, Q16D, T23A, S30T, G45K, I70M, A89L, P111Y
VL: B1 VL with H34A
notes: as for B1
B6: VH SEQ ID NO 522 / VL SEQ ID NO 334 (antibody, IgG4, V domains shown)
VH: B1 VH with K13E
VL: B1 VL with V29I
notes: as for B1
B7: VH SEQ ID NO 514 / VL SEQ ID NO 318 (antibody, IgG4, V domains shown)
VH: B1 VH with K13E, Q16D, T23A, S30T, G45K, I70M, A89L, P111Y
VL: B1 VL with V29I, Q42E, A51T
notes: as for B1
B8: VH SEQ ID NO 522 / VL SEQ ID NO 350 (antibody, IgG4, V domains shown)
VH: B1 VH with K13E
VL: B1 VL with V29I, A51T, Q100A, I106L
notes: as for B1
B9: VH SEQ ID NO 514 / VL SEQ ID NO 470 (antibody, IgG4, V domains shown)
VH: B1 VH with K13E, Q16D, T23A, S30T, G45K, I70M, A89L, P111Y
VL: B1 VL
notes: as for B1
B10: VH SEQ ID NO 314 / VL SEQ ID NO 478 (antibody, IgG4, V domains shown)
VH: B1 VH with K13E, Q16D, T23A, I70M, R72V, A89L
VL: B1 VL with N90Q
notes: as for B1
B11: VH SEQ ID NO 514 / VL SEQ ID NO 358 (antibody, IgG4, V domains shown)
VH: B1 VH with K13E, Q16D, T23A, S30T, G45K, I70M, A89L, P111Y
VL: B1 VL with V29I, A51T
notes: as for B1
B12: VH SEQ ID NO 514 / VL SEQ ID NO 462 (antibody, IgG4, V domains shown)
VH: B1 VH with K13E, Q16D, T23A, S30T, G45K, I70M, A89L, P111Y
VL: B1 VL with Q100A
notes: as for B1
B13: VH SEQ ID NO 514 / VL SEQ ID NO 438 (antibody, IgG4, V domains shown)
VH: B1 VH with K13E, Q16D, T23A, S30T, G45K, I70M, A89L, P111Y
VL: B1 VL with H34A, F83V
notes: as for B1
B14: VH SEQ ID NO 514 / VL SEQ ID NO 494 (antibody, IgG4, V domains shown)
VH: B1 VH with K13E, Q16D, T23A, S30T, G45K, I70M, A89L, P111Y
VL: B1 VL with F83V
notes: as for B1
B15: VH SEQ ID NO 514 / VL SEQ ID NO 334 (antibody, IgG4, V domains shown)
VH: B1 VH with K13E, Q16D, T23A, S30T, G45K, I70M, A89L, P111Y
VL: B1 VL with V29I
notes: as for B1
B16: VH SEQ ID NO 514 / VL SEQ ID NO 390 (antibody, IgG4, V domains shown)
VH: B1 VH with K13E, Q16D, T23A, S30T, G45K, I70M, A89L, P111Y
VL: B1 VL with H34A, Q42E
notes: as for B1
B17: VH SEQ ID NO 314 / VL SEQ ID NO 502 (antibody, IgG4, V domains shown)
VH: B1 VH with K13E, Q16D, T23A, I70M, R72V, A89L
VL: B1 VL with A51T
notes: as for B1
B18: VH SEQ ID NO 514 / VL SEQ ID NO 502 (antibody, IgG4, V domains shown)
VH: B1 VH with K13E, Q16D, T23A, S30T, G45K, I70M, A89L, P111Y
VL: B1 VL with A51T
notes: as for B1
B19: VH SEQ ID NO 514 / VL SEQ ID NO 478 (antibody, IgG4, V domains shown)
VH: B1 VH with K13E, Q16D, T23A, S30T, G45K, I70M, A89L, P111Y
VL: B1 VL with N90Q
notes: as for B1
B20: VH SEQ ID NO 314 / VL SEQ ID NO 382 (antibody, IgG4, V domains shown)
VH: B1 VH with K13E, Q16D, T23A, I70M, R72V, A89L
VL: B1 VL with V29L, Q42E
notes: as for B1
B21: VH SEQ ID NO 514 / VL SEQ ID NO 398 (antibody, IgG4, V domains shown)
VH: B1 VH with K13E, Q16D, T23A, S30T, G45K, I70M, A89L, P111Y
VL: B1 VL with H34A, Q42E, A51T
notes: as for B1

These binders were tested against T1, recombinant human activated Factor VII … (assay: BLI (Fortebio)).
Procedure: All steps were performed in running buffer (20 mM HEPES buffer (pH 7.4), 150 mM NaCl, 5 mM CaCl2, 0.03% Tween 20, 1 mg/ml IgG-free BSA) at […] Antibodies were captured on anti-human tips (AHC, Fortebio) for 3 min at a concentration of 10 ug/ml. This was followed by a 3 min incubation to establish a baseline. Following this, association was monitored for 3 min using four different concentrations of VIIa (25 nm, 50 nM, 100 nM, and 200 nM), followed by a 3 mi dissociation. Sensorgrams were analysed using Fortebio data analysis software.

| Kd [nM] | Binder |
| --- | --- |
| 1.1 | B1 |
| 68 | B2 |
| 5.3 | B3 |
| 3.1 | B4 |
| 4.6 | B5 |
| 1.2 | B6 |
| 0.99 | B7 |
| 1.3 | B8 |
| 1.2 | B9 |
| 64 | B10 |
| 0.87 | B11 |
| 1.2 | B12 |
| 5.4 | B13 |
| 1.4 | B14 |
| 1.1 | B15 |
| 4.7 | B16 |
| 25 | B17 |
| 0.92 | B18 |
| 1.9 | B19 |
| 27 | B20 |
| 7.9 | B21 |
